Results reported in US20220235109A1 (CUGENE, published 2022).
Where a chain is given by its changes, count along the chain named. Names may count otherwise.

T1: IL-2Rβγ on human CD8+ T cells, NK cells and CD4+ T cells (human, UniProt P14784 27-551; P31785 23-369)
T1 sequence (looked up) 1: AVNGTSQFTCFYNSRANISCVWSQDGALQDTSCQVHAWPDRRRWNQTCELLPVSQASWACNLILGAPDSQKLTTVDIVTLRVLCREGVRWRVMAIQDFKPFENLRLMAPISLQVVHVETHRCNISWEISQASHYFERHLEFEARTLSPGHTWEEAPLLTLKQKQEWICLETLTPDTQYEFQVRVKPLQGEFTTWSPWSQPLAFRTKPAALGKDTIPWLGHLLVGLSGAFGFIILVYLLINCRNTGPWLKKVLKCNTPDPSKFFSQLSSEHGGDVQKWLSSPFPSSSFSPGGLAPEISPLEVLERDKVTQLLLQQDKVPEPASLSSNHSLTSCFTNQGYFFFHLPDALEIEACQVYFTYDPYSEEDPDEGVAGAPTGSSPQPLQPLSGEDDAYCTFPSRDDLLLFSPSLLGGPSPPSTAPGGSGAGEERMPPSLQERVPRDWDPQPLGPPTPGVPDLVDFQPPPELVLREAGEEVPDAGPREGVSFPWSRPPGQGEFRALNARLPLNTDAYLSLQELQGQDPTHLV
T1 sequence (looked up) 2: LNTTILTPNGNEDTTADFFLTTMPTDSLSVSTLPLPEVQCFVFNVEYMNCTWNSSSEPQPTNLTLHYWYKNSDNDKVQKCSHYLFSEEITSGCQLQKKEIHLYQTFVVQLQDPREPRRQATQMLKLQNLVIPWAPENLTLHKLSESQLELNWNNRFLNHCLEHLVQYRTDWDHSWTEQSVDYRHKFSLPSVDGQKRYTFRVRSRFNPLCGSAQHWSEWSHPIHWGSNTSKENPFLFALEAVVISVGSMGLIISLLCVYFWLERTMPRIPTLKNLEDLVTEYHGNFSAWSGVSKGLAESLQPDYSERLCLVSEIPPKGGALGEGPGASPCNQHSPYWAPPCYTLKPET

T2: IL-2Rα-ECD (human, UniProt P01589 22-240)
T2 construct: coated on ELISA plates at 0.1 µg/well; also called CD25; receptor subunit α
T2 sequence: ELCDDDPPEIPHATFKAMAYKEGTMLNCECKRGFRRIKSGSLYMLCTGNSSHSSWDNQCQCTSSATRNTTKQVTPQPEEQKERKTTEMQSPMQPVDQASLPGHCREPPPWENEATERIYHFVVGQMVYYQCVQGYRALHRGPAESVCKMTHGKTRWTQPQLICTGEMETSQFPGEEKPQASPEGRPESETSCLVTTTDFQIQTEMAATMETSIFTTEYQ

T3: IL-2Rα (CD25) on human CD4+ Treg cells (human, UniProt P01589 22-272)
T3 sequence (looked up): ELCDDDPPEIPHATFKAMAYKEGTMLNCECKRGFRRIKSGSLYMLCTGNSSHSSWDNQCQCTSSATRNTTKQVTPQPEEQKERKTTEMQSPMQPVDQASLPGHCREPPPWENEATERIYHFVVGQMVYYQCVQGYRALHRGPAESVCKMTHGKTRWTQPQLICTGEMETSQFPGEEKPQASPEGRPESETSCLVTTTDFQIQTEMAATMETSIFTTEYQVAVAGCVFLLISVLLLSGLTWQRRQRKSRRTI

B1: P-0885 (antibody, human IgG1, kappa)
heavy 1: EVQLVESGGGLVKPGGSLRLSCAASGFTFSSYDMSWVRQAPGKGLEWVATISGGGSYTYYPDSVKGRFTISRDNAKNSLYLQMNSLRAEDTAVYYCASPDSSGVAYWGQGTLVTVSSASTKGPSVFPLAPSSKSTSGGTAALGCLVKDYFPEPVTVSWNSGALTSGVHTFPAVLQSSGLYSLSSVVTVPSSSLGTQTYICNVNHKPSNTKVDKKVEPKSCDKTHTCPPCPAPEAAGAPSVFLFPPKPKDTLMISRTPEVTCVVVDVSHEDPEVKFNWYVDGVEVHNAKTKPREEQYNSTYRVVSVLTVLHQDWLNGKEYKCKVSNKALPAPIEKTISKAKGQPREPQVYTLPPCREEMTKNQVSLWCLVKGFYPSDIAVEWESNGQPENNYKTTPPVLDSDGSFFLYSKLTVDKSRWQQGNVFSCSVMHEALHNHYTQKSLSLSPGGGGGSGGGGSGGGGSAPTSSSTKKTQLQLEHLLQDLQMILNGINNYKNPKLTRMLTFKFYMPKKATELKHLQCLEEELKRLEEVLNLAQSKNFHLRPRDLISNINVIVLELKGSETTFMCEYADETATIVEFLNRWITFIQSIISTLT
heavy 2: EVQLVESGGGLVKPGGSLRLSCAASGFTFSSYDMSWVRQAPGKGLEWVATISGGGSYTYYPDSVKGRFTISRDNAKNSLYLQMNSLRAEDTAVYYCASPDSSGVAYWGQGTLVTVSSASTKGPSVFPLAPSSKSTSGGTAALGCLVKDYFPEPVTVSWNSGALTSGVHTFPAVLQSSGLYSLSSVVTVPSSSLGTQTYICNVNHKPSNTKVDKKVEPKSCDKTHTCPPCPAPEAAGAPSVFLFPPKPKDTLMISRTPEVTCVVVDVSHEDPEVKFNWYVDGVEVHNAKTKPREEQYNSTYRVVSVLTVLHQDWLNGKEYKCKVSNKALPAPIEKTISKAKGQPREPQVCTLPPSREEMTKNQVSLSCAVKGFYPSDIAVEWESNGQPENNYKTTPPVLDSDGSFFLVSKLTVDKSRWQQGNVFSCSVMHEALHNHYTQKSLSLSPG
light: DIVMTQSPLSLPVTPGEPASITCKASQDVETVVAWYLQKPGQSPRLLIYWASTRHTGVPDRFSGSGSGTDFTLKISRVEAEDVGVYYCQQYSRYPWTFGQGTKLEIKRTVAAPSVFIFPPSDEQLKSGTASVVCLLNNFYPREAKVQWKVDNALQSGNSQESVTEQDSKDSTYSLSSTLTLSKADYEKHKVYACEVTHQGLSSPVTKSFNRGEC
B2: P-0732 (Fc fusion)
chain: DKTHTCPPCPAPEAAGAPSVFLFPPKPKDTLMISRTPEVTCVVVDVSHEDPEVKFNWYVDGVEVHNAKTKPREEQYNSTYRVVSVLTVLHQDWLNGKEYKCKVSNKALPAPIEKTISKAKGQPREPQVCTLPPSREEMTKNQVSLWCLVKGFYPSDIAVEWESNGQPENNYKTTPPVLDSDGSFFLYSKLTVDKSRWQQGNVFSCSVMHEALHNHYTQKSLSLSPGGGGSGGGSAPTSSSTKKTQLQLEHLLLDLQMILNGINNYKNPKLTRMLTFKFYMPKKATELKHLQCLEEELKRLEEVLNLAQSKNFHLRPRDLISNINVIVLELKGSETTFMCEYADETATIVEFLNRWITFIESIISTLT
Fc: DKTHTCPPCPAPEAAGAPSVFLFPPKPKDTLMISRTPEVTCVVVDVSHEDPEVKFNWYVDGVEVHNAKTKPREEQYNSTYRVVSVLTVLHQDWLNGKEYKCKVSNKALPAPIEKTISKAKGQPREPQVYTLPPCREEMTKNQVSLSCAVKGFYPSDIAVEWESNGQPENNYKTTPPVLDSDGSFFLVSKLTVDKSRWQQGNVFSCSVMHEALHNHYTQKSLSLSPG
B3: P-0766 (Fc fusion)
chain 1: B2 chain with F276A, E296A, R299P, E360Q
chain 2: B2 Fc
notes: knob chain carries the IL-2 variant; hole-Fc; monovalent; also called IL-2 F42A/E62A/S125I monovalent Fc fusion
B4: P-0703 (Fc fusion)
chain 1: B2 chain with F276A, R299H, E360Q
chain 2: B2 Fc
notes: knob chain carries the IL-2 variant; hole-Fc; monovalent; also called IL-2 F42A/P65H/S125I monovalent Fc fusion
B5: P-0702 (Fc fusion)
chain 1: B2 chain with F276A, E296F, R299P, E360Q
chain 2: B2 Fc
notes: knob chain carries the IL-2 variant; hole-Fc; monovalent; also called IL-2 F42A/E62F/S125I monovalent Fc fusion
B6: P-0765 (Fc fusion)
chain 1: B2 chain with F276A, R299A, E360Q
chain 2: B2 Fc
notes: knob chain carries the IL-2 variant; hole-Fc; monovalent; also called IL-2 F42A/P65A/S125I monovalent Fc fusion
B7: P-0767 (Fc fusion)
chain 1: B2 chain with F276A, E296H, R299P, E360Q
chain 2: B2 Fc
notes: knob chain carries the IL-2 variant; hole-Fc; monovalent; also called IL-2 F42A/E62H/S125I monovalent Fc fusion
B8: P-0837 (antibody, mouse IgG1, kappa)
heavy 1: EVQLQESGPGLVKPSQSLSLTCSVTGYSITSSYRWNWIRKFPGNRLEWMGYINSAGISNYNPSLKRRISITRDTSKNQFFLQVNSVTTEDAATYYCARSDNMGTTPFTYWGQGTLVTVSSAKTTPPSVYPLAPGSAAQTNSMVTLGCLVKGYFPEPVTVTWNSGSLSSGVHTFPAVLQSDLYTLSSSVTVPSSTWPSQTVTCNVAHPASSTKVDKKIVPRDCGCKPCICTVPEVSSVFIFPPKPKDVLTITLTPKVTCVVVAISKDDPEVQFSWFVDDVEVHTAQTKPREEQINSTFRSVSELPIMHQDWLNGKEFKCRVNSAAFGAPIEKTISKTKGRPKAPQVYTIPPPKKQMAKDKVSLTCMITNFFPEDITVEWQWNGQPAENYKNTQPIMKTDGSYFVYSKLNVQKSNWEAGNTFTCSVLHEGLHNHHTEKSLSHSPG
heavy 2: not shown
light: DIVMTQGTLPNPVPSGESVSITCRSSKSLLYSDGKTYLNWYLQRPGQSPQLLIYWMSTRASGVSDRFSGSGSGTDFTLKISGVEAEDVGIYYCQQGLEFPTFGGGTKLELKRTDAAPTVSIFPPSSEQLTSGGASVVCFLNNFYPRDINVKWKIDGSERQNGVLNSWTDQDSKDSTYSMSSTLTLTKDEYERHNSYTCEATHKTSTSPIVKSFNRNEC
B9: P-0782 (antibody, mouse IgG1, kappa)
heavy 1: B8 heavy 1
heavy 2: not shown
light: B8 light
B10: P-0838 (antibody, mouse IgG1, kappa)
heavy 1: B8 heavy 1
heavy 2: not shown
light: B8 light

What was measured:
[1] = biological target: T1, IL-2Rβγ on human CD8+ T cells, NK cells …; experiment: cell-based or functional assay
[2] = biological target: T1, IL-2Rβγ on human CD8+ T cells, NK cells …; experiment: cell-based or functional assay; remark: listed apart in the source
IL-2Rα-ECD = biological target: T2, IL-2Rα-ECD; experiment: ELISA, IL-2Rα-ECD coated
Description: A panel of IL-2 muteins was expressed as C-terminal fusions to the Fc homodimer of Fc heterodimer and screened for binding to IL-2Rα in enzyme-linked immunosorbent assay (ELISA). Briefly, IL-2Rα-ECD (SEQ ID NO: 5) was coated onto the wells of Nunc Maxisorp 96-well microplates at 0.1 μg/well. After overnight incubation at 4° C. and blocking with superblock (Thermo Fisher), 3-fold serial dilutions of IL-2 Fc fusion proteins starting at 100 nM were added to each well at 100 μI/well. Following one-hour incubation at room temperature, 100 μl/well of goat anti-human IgG Fc-HRP (1:5000 diluted in diluent) were added to each well and incubated at room temperature for 1 hour. Wells were thoroughly aspirated and washed three times with PBS/0.05% Tween-20 following each step. Finally, 100 μl TMB substrate was added to each well; the plate was developed at room temperature in the dark for 10 minutes, and 100 μl/well of stop solution (2N Sulfuric acid, Ricca Chemical) was added. Absorbance was determined at 450 nm and curves were fit using Prism software (Graph Pad).

[3] = biological target: T3, IL-2Rα (CD25) on human CD4+ Treg cells; experiment: cell-based or functional assay

Row | Binder | Binding EC50 vs P-0689 (IL-2Rα-ECD) | binding result (IL-2Rα-ECD) | pSTAT5 EC50 in Treg cells (human PBMC) [3] | further results
1 | B1 |  |  |  | Ki67 EC50 (nM), CD8+ T [1]: 9.3 nM; Ki67 EC50 (nM), NK [1]: 21 nM; pSTA5 EC50 (pM), CD8+ T [1]: 249 pM; pSTA5 EC50 (pM), NK [1]: 2330 pM
2 | B2 |  |  |  | Ki67 expression on human CD8+ T cells (EC50 against P-0704) [2]: > 100 fold
3 | B3 | > 500 fold (ratio of EC50s) | no binding |  | 
4 | B4 | > 500 fold (ratio of EC50s) | no binding |  | 
5 | B5 | > 500 fold (ratio of EC50s) | no binding |  | 
6 | B6 | 6.8 fold (ratio of EC50s) |  |  | 
7 | B7 | > 500 fold (ratio of EC50s) | no binding |  | 
8 | B8 |  |  | 0.45 pM | 
9 | B9 |  |  | 4.5 nM | pSTAT5 EC50 in Treg cells, fold against P-0837 [3]: 10000 fold; pSTAT5 EC50 in CD8+ T cells (human PBMC) [2]: 4.6 nM
10 | B10 |  |  | 0.36 nM | pSTAT5 EC50 in Treg cells, fold against P-0837 [3]: 800 fold; pSTAT5 EC50 in CD8+ T cells (human PBMC) [2]: 4.6 nM
